One block for each molecule: values may come before it.
Key:
I domain of α11β1 = molecular target: T1, I domain of α11β1 (Homo sapiens, UniProt Q9UKX5); test: ELISA binding to in-house generated I domain of α11β1; conditions: Yes/No
T1 construct: An in-house generated I domain of α11β1 was used; made in house
T1 sequence (Q9UKX5 164-345 limits assumed): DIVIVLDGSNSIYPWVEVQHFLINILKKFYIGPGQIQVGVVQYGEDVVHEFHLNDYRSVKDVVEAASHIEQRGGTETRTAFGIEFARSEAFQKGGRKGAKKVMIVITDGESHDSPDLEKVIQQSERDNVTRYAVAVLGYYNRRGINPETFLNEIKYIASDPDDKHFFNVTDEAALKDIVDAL
Outline: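 Plate-coated antigen (0.25 μg/mL, overnight 4° C) probed with antibody dilution series 1 h at room temperature, then biotinylated anti-IgG and streptavidin-HRP, 1 h each. TMB substrate 5 min, stopped, absorbance at 450 nm; in-house I domain of α11β1 used as target.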

[1] = tested on: human pulmonary fibroblasts (HPFs); test: FACS antibody binding to human pulmonary fibroblasts; conditions: binding Yes/No
myofibroblasts (MF) = test: FACS antibody binding to myofibroblasts; set-up: species or system human; conditions: binding Yes/No
Outline: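 Human pulmonary fibroblasts, serum-starved 24 h then TGFβ-1-treated 72 h to give myofibroblasts, were blocked with heat-inactivated FBS and stained with anti-α11 antibodies, then PE secondary, 30 min each at 4 °C, before 1% PFA fixation. Binding read by flow cytometry as PE geometric MFI of single cells.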

[2] = molecular target: T2, α11β1 expressed on the surface of CHO-K1 cells (Homo sapiens, UniProt Q9UKX5); test: FACS antibody binding to CHO-K1 cells expressing human α11; conditions: binding Yes/No
T2 construct: expressed in transfected cells; host or cells: CHO-K1
T2 sequence (Q9UKX5 23-1188): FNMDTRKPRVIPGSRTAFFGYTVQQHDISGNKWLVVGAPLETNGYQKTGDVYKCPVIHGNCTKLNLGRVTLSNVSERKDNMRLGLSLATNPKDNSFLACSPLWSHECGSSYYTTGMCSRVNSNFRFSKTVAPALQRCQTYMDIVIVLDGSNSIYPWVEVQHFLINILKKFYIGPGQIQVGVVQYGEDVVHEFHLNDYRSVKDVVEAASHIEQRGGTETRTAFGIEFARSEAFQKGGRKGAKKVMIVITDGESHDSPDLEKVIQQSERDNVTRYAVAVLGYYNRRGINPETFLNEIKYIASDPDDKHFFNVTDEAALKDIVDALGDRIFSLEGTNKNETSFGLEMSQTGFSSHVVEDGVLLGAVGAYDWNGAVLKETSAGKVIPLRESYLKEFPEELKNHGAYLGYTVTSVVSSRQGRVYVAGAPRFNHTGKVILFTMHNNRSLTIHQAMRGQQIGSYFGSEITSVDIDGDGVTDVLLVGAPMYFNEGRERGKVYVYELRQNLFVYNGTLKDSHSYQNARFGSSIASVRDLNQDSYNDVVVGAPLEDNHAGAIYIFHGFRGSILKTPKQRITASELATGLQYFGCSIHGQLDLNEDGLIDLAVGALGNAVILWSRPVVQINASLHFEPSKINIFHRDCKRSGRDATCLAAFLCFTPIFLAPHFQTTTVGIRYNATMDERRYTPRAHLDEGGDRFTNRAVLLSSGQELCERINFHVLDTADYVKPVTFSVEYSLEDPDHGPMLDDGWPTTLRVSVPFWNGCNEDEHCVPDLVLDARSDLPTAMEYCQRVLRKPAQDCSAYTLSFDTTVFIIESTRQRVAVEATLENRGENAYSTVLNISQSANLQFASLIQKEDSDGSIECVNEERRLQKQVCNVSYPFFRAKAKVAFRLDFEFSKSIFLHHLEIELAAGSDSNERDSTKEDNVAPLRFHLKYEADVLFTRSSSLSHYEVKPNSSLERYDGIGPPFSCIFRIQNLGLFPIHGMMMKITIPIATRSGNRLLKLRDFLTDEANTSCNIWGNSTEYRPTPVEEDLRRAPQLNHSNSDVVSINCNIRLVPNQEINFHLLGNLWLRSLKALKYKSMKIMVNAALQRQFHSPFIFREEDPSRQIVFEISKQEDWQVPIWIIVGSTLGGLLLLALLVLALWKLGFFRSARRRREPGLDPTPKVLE
Outline: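 Wild-type or human α11-transfected CHO-K1 cells (endogenous β1) were incubated with antibody at varied concentrations for 30 min at 4° C, then secondary antibody (1:100) 30 min at 4° C. Cells were PFA-fixed and read by flow cytometry; binding EC50 estimated from FACS data.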

B2: 3B1: rabbit anti-α11β1 mAb; heavy chain SEQ ID NO: 201, light chain SEQ ID NO: 202 (antibody)
heavy: METGLRWLLLVAVLKGVQCQEQLEESGGGLVKPEGSLTLTCKASGFDLSSGYDMCWVRQAPGKGLEWIACIYADYSGSTYYASWVNGRFTISSSTSLNTVDLKMTSLTAADTATYFCARGATGNGGYGYYFNLWGPGTLVTVSSGQPKAPSVFPLAPCCGDTPSSTVTLGCLVKGYLPEPVTVTWNSGTLTNGVRTFPSVRQSSGLYSLSSVVSVTSSSQPVTCNVAHPATNTKVDKTVAPSTCSKPMCPPPELPGGPSVFIFPPKPKDTLMISRTPEVTCVVVDVSQDDPEVQFTWYINNEQVRTARPPLREQQFNSTIRVVSTLPIAHQDWLRGKEFKCKVHNKALPAPIEKTISKARGQPLEPKVYTMGPPREELSSRSVSLTCMINGFYPSDISVEWEKNGKAEDNYKTTPTVLDSDGSYFLYSKLSVPTSEWQRGDVFTCSVMHEALHNHYTQKSISRSPGK
light: MDTRAPTQLLGLLLLWLPGARCADIVMTQTPASVSEPVGGTVTIKCQASQNINSGLAWYQQKPGQPPKLLIYKASTLASGVSSRFKGSGSGTEFTLTISDLECADAATYYCQTYYYSSSSSDNAFGGGTEVVVKGDPVAPTVLIFPPAADQVATGTVTIVCVANKYFPDVTVTWEVDGTTQTTGIENSKTPQNSADCTYNLSSTLTLTSTQYNSHKEYTCKVTQGTTSVVQSFNRGDC
- I Domain binding (I domain of α11β1): No
- HPF FACS [1]: No
- MF FACS (myofibroblasts (MF)): Yes
- CHO-K1 FACS [2]: Yes

B3: 5A7: rabbit anti-α11β1 mAb; heavy chain SEQ ID NO: 193, light chain SEQ ID NO: 194 (antibody)
heavy: METGLRWLLLVAVLKGVQCQSLEESGGGLVQPEGSLTLACTASGFSFSSYYYICWVRQAPGTGLEWIGCINTGSDDTHYASWLKGRFTFSKASSTTLTLQMTSLTAADTATYFCARSSGSSDDAYDLWGPGTLVTVSSGQPKAPSVFPLAPCCGDTPSSTVTLGCLVKGYLPEPVTVTWNSGTLTNGVRTFPSVRQSSGLYSLSSVVSVTSSSQPVTCNVAHPATNTKVDKTVAPSTCSKPMCPPPELPGGPSVFIFPPKPKDTLMISRTPEVTCVVVDVSQDDPEVQFTWYINNEQVRTARPPLREQQFNSTIRVVSTLPIAHQDWLRGKEFKCKVHNKALPAPIEKTISKARGQPLEPKVYTMGPPREELSSRSVSLTCMINGFYPSDISVEWEKNGKAEDNYKTTPTVLDSDGSYFLYSKLSVPTSEWQRGDVFTCSVMHEALHNHYTQKSISRSPGK
light: MDTRAPTQLLGLLLLWLPGARCDVVMTQTPASVSEPVGGAVTIKCQASQSIGSNLAWYQHKPGQPPKLLIYFASSLASGVSSRFKGGRSGTQFTLTISDLECADAATYYCHCTYYPLSYVTFGGGTEVVVKGDPVAPTVLIFPPAADQVATGTVTIVCVANKYFPDVTVTWEVDGTTQTTGIENSKTPQNSADCTYNLSSTLTLTSTQYNSHKEYTCKVTQGTTSVVQSFNRGDC
- I Domain binding (I domain of α11β1): No
- HPF FACS [1]: No
- MF FACS (myofibroblasts (MF)): Yes
- CHO-K1 FACS [2]: Yes

B4: 5D7: rabbit anti-α11β1 mAb; heavy chain SEQ ID NO: 191, light chain SEQ ID NO: 192 (antibody)
heavy: METGLRWLLLVAVLKGVQCQEQLVESGGGLVQPEGSLTLTCKASGFDFSSNAMCWVRQAPGKGLEWIACIYNGDGSTYYASWVNGRFTISKTSSTTVTLQMTSLTAADTATYFCARGLSNWNRDNLWGPGTLVTVSSGQPKAPSVFPLAPCCGDTPSSTVTLGCLVKGYLPEPVTVTWNSGTLTNGVRTFPSVRQSSGLYSLSSVVSVTSSSQPVTCNVAHPATNTKVDKTVAPSTCSKPMCPPPELPGGPSVFIFPPKPKDTLMISRTPEVTCVVVDVSQDDPEVQFTWYINNEQVRTARPPLREQQFNSTIRVVSTLPIAHQDWLRGKEFKCKVHNKALPAPIEKTISKARGQPLEPKVYTMGPPREELSSRSVSLTCMINGFYPSDISVEWEKNGKAEDNYKTTPTVLDSDGSYFLYSKLSVPTSEWQRGDVFTCSVMHEALHNHYTQKSISRSPGK
light: MDTRAPTQLLGLLLLWLPGATFAQVLTQTPSSVSAAVGGTATINCQASQSLYSPKNLAWYQQTPGQPPKLLIYSASKLASGVPSRFKGSGSGTQFTLTISGVQCDDAAIYYCQGEFSCTTAACFAFGGGTEVVVKGDPVAPTVLIFPPAADQVATGTVTIVCVANKYFPDVTVTWEVDGTTQTTGIENSKTPQNSADCTYNLSSTLTLTSTQYNSHKEYTCKVTQGTTSVVQSFNRGDC
- I Domain binding (I domain of α11β1): No
- HPF FACS [1]: No
- MF FACS (myofibroblasts (MF)): Yes
- CHO-K1 FACS [2]: Yes

Results, then the molecule that gave them:

- I Domain binding (I domain of α11β1): No
- HPF FACS [1]: No
- MF FACS (myofibroblasts (MF)): Yes
- CHO-K1 FACS [2]: Yes
B1: 6C7: rabbit anti-α11β1 mAb; heavy chain SEQ ID NO: 185, light chain SEQ ID NO: 186 (antibody)
heavy: METGLRWLLLVAVLKGVQCQQQLEESGGGLVKPGGTLTLTCKASGIDFSSYYYMCWVRQAPGKGLELIVCIYTSSGGTWYASWVNGRLTISRSTSLNTVDLKMTSLTAADTATYFCARGVYSGSSDYPTRLDLWGQGTLVTVSLGQPKAPSVFPLAPCCGDTPSSTVTLGCLVKGYLPEPVTVTWNSGTLTNGVRTFPSVRQSSGLYSLSSVVSVTSSSQPVTCNVAHPATNTKVDKTVAPSTCSKPMCPPPELPGGPSVFIFPPKPKDTLMISRTPEVTCVVVDVSQDDPEVQFTWYINNEQVRTARPPLREQQFNSTIRVVSTLPIAHQDWLRGKEFKCKVHNKALPAPIEKTISKARGQPLEPKVYTMGPPREELSSRSVSLTCMINGFYPSDISVEWEKNGKAEDNYKTTPTVLDSDGSYFLYSKLSVPTSEWQRGDVFTCSVMHEALHNHYTQKSISRSPGK
light: MDTSTSTALLGLLLLWLTGARCAIEMTQSPPSLSASVGETVRIRCLASEDIYSGISWYQQKPEKPPTLLISGASNLESGVPPRFSGGGSGTDYTLTIGGVQAEDVATYYCLGGYSFSSTGLTFGAGTKVEIKRDPVAPSVLLFPPSKEELTTGTATIVCVANKYFPDVTVTWEVDGTTQTTGIENSKTPQNSADCTYNLSSTLTLTSTQYNSHKEYTCKVTQGTTSVVQSFNRGDC

- I Domain binding (I domain of α11β1): Yes
- HPF FACS [1]: No
- MF FACS (myofibroblasts (MF)): No
- CHO-K1 FACS [2]: No
B5: 10-L15: mouse anti-α11β1 mAb; VH SEQ ID NO: 119, VL SEQ ID NO: 120 (antibody, V domains shown)
VH: QVQLQQSGPELVRPGASVKMSCKASGYTFTSYWMHWVKQRPGQGLEWIGMIDPSNSETWLNQKFKDKATLNVDKSSNTAYMQLSSLTSEDSAVYYCARYDGYYDYWGQGTTLTVSS
VL: NIVLTQSPASLAVSLGQRATISCRASESVDSYGNSFMHWYQQKPGQPPKLLIYLASNVESGVPARFSGSGSRTDFTLTIDPVEADDAATYYCQQNNEDPWTFGGGTKLEIK

Reference: patent publication US12460006B2, “Antibodies against integrin alpha 11 beta 1” (Momenta Pharmaceuticals, Inc., priority 2019, dated 2025)
